# According to ChEMBL document CHEMBL1136535, “Unexpected inhibition of S-adenosyl-L-homocysteine hydrolase by a guanosine nucleoside” (Bioorg Med Chem Lett, 2003):
# Columns and labels:
# [1] = substrate: Nc1nc(O)cc(-c2cncn2C2O[C@H](CO)[C@@H](O)[C@H]2O)n1; assay: Enzyme kinetic constant for S-adenosyl-L-homocysteine hydrolase; Not a substrate
# [2] = substrate: Nc1nc(O)cc(-c2cncn2C2O[C@H](CO)[C@@H](O)[C@H]2O)n1; assay: Enzyme kinetic constant for S-adenosyl-L-homocysteine hydrolase in hydrolysis direction
# [3] = substrate: Nc1cc(-c2cncn2C2O[C@H](CO)[C@@H](O)[C@H]2O)ncn1; assay: (§1) Enzyme kinetic constant for S-adenosyl-L-homocysteine hydrolase
# [4] = substrate: Nc1nc2c(ncn2[C@@H]2O[C@H](CO)[C@@H](O)[C@H]2O)c(=O)[nH]1; assay: as §1
# [5] = substrate: O=c1[nH]cnc2c1ncn2[C@@H]1O[C@H](CO)[C@@H](O)[C@H]1O; assay: as §1
# [6] = substrate: OC[C@H]1OC(n2cncc2-c2cc(O)ncn2)[C@H](O)[C@@H]1O; assay: as §1
# [7] = substrate: Nc1ncnc2c1ncn2[C@@H]1O[C@H](CO)[C@@H](O)[C@H]1O; assay: as §1
protein,measurement,setting,value
"Adenosylhomocysteinase (Homo sapiens), P23526 (protein) MSDKLPYKVADIGLAAWGRKALDIAENEMPGLMRMRERYSASKPLKGARIAGCLHMTVETAVLIETLVTLGAEVQWSSCNIFSTQDHAAAAIAKAGIPVYAWKGETDEEYLWCIEQTLYFKDGPLNMILDDGGDLTNLIHTKYPQLLPGIRGISEETTTGVHNLYKMMANGILKVPAINVNDSVTKSKFDNLYGCRESLIDGIKRATDVMIAGKVAVVAGYGDVGKGCAQALRGFGARVIITEIDPINALQAAMEGYEVTTMDEACQEGNIFVTTTGCIDIILGRHFEQMKDDAIVCNIGHFDVEIDVKWLNENAVEKVNIKPQVDRYRLKNGRRIILLAEGRLVNLGCAMGHPSFVMSNSFTNQVMAQIELWTHPDKYPVGVHFLPKKLDEAVAEAHLGKLNVKLTKLTEKQAQYLGMSCDGPFKPDHYRY",Km,[1],Not a substrate
same,Km,[2],6.6 µM
same,Km,[3],54.4 µM
same,Km,[4],844 µM
same,Km,[5],2.5 µM
same,Km,[6],421 µM
same,Km,[7],0.82 µM
